Results from paper PMC9359980.

What was measured:
[1] = target: Photozipper (PZ), wild-type (Vaucheria frigida); experiment: high-speed atomic force microscopy (HS-AFM); molecules on mica in Buffer-B (1 mM NaCl, 20 mM Tris-HCl pH 7, 1 mM DTT, 0.2 mM PMSF), room temperature, blue light illumination (450 nm, about 4.3 mW/mm^2); 13-50 nM protein; dimer to monomers
[2] = target: Photozipper (PZ), wild-type (Vaucheria frigida); experiment: high-speed atomic force microscopy (HS-AFM); molecules on mica in Buffer-B (1 mM NaCl, 20 mM Tris-HCl pH 7, 1 mM DTT, 0.2 mM PMSF), room temperature, dark conditions (prepared under dim red light); 13-38 nM protein; dimer to monomers

average dimer lifetime [1]: 86 s
stoichiometry N [1]: 2
time constant of the dimerization rate (38 nM PZ, after the start of blue light) [1]: 255 s
average dimer lifetime [2]: 8.1 s
stoichiometry N [2]: 2
Substance: Photozipper (PZ), wild-type (domain or fragment)
